One molecule from patent US10047151B2, “Methods for the treatment of cancer and inflammatory diseases using cereblon as a predictor” (Celgene Corporation, priority 2011, dated 2018) can be followed below.

This experiment concerns the target CRBN (Homo sapiens, UniProt Q96SW2). Nature of the experiment: Denaturing immunoblot with CGN-6-4-5. The format is binding. On the set-up: endogenous in cells; host or cells: DF15 myeloma cells (endogenous); HEK293 cells expressing recombinant flag-tagged CRBN on the same blot. As to the method:
CGN-6-4-5 was diluted 1:10,000 dilution in 0.1% Tween PBS buffer. An exemplary immunoblot with myeloma cells containing endogenous CRBN (DF15), DF15R with no CRBN and HEK293 cells expressing recombinant flag-tagged CRBN is shown in FIG. 38. Peptide neutralization was performed by combining antibody with a five-fold (by weight) excess of blocking peptide in 500 μl PBS and incubating with constant rotation at room temperature for 2 hours.

Sequence of CRBN (Q96SW2 whole entry): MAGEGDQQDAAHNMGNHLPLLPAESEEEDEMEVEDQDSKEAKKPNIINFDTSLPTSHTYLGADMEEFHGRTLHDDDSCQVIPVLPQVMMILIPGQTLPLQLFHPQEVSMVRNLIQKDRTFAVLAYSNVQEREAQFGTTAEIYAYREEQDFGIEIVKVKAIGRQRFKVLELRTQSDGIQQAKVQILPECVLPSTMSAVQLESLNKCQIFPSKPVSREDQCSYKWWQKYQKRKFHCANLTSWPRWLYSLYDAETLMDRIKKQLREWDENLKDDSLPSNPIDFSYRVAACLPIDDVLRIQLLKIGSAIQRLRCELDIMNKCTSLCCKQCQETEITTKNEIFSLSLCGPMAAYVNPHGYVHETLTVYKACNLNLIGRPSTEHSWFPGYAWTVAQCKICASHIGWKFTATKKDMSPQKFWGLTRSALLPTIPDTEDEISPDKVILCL

B1: CGN-6-4-5: rabbit monoclonal anti-CRBN antibody, heavy chain SEQ ID NO:9, light chain SEQ ID NO:11 (antibody)
heavy: METGLRWLLLVAVLKGVQCQSVEESGGRLVTPGTPLTLTCTVSGFSLSRYGVSWVRQAPGKGLEHIGYIYSDPGMTFYATWAKGRFTISKTSSTTVDLKMTSPTIEDTATYFCARGTPLASYSTWGPGTLVTISLGQPKAPSVFPLAPCCGDTPSSTVTLGCLVKGYLPEPVTVTWNSGTLTNGVRTFPSVRQSSGLYSLSSVVSVTSSSQPVTCNVAHPATNTKVDKTVAPSTCSKPTCPPPELLGGPSVFIFPPKPKDTLMISRTPEVTCVVVDVSQDDPEVQFTWYINNEQVRTARPPLREQQFNSTIRVVSTLPIAHQDWLRGKEFKCKVHNKALPAPIEKTISKARGQPLEPKVYTMGPPREELSSRSVSLTCMINGFYPSDISVEWEKNGKAEDNYKTTPAVLDSDGSYFLYSKLSVPTSEWQRGDVFTCSVMHEALHNHYTQKSISRSPGK
light: MDTRAPTQLLGLLLLWLPGATFAQVLTQTPASVSAAVGGTVTINCQSSENIYKNNYLSWFQQKPGQPPKLLIYQASTLASGVPSRFKGSGSGTRFSLTISDLECDDAATYYCAGGYSGNIFTFGGGTEVVVKGDPVAPTVLIFPPAADQVATGTVTIVCVANKYFPDVTVTWEVDGTTQTTGIENSKTPQNSADCTYNLSSTLTLTSTQYNSHKEYTCKVTQGTTSVVQSFNRGDC
As for B1, the “recognition of CRBN on denaturing immunoblots” value is “specifically recognizes the full-length 51 kDa human CRBN protein”.
